We go through 125 sequences from the supplement of paper PMC9112550, “Optimization of the antimicrobial peptide Bac7 by deep mutational scanning” (BMC Biology, 2022).

The data set relates to Escherichia coli TOP10. In words: shrunken log2 fold change of peptide-encoding DNA abundance (4.5 h post-induction vs induction); higher = less antimicrobial activity (less host growth inhibition). The conditions noted are these: time post-induction: 4.5 h; library: site-saturation at positions 5, 18, 19, 20.
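Also: peptides expressed intracellularly from a pBAD plasmid library in pooled LB shake-flask culture, induced with 0.3% L-arabinose, DNA abundance read by NGS, three biological replicates, DESeq2 with apeglm shrinkage.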

Take RRIRGRPPRLPRPRPRPMHTPRP: the “shrunken log2 fold change” value amounted to 1.25. The value for RRIRVRPPRLPRPRPRPSSMPRP was -0.157.

As for RRIRGRPPRLPRPRPRPFEYPRP, the “shrunken log2 fold change” value came out at 0.0664. Consider RRIRRRPPRLPRPRPRPHPMPRP, for which the “shrunken log2 fold change” value came out at 0.144. Consider RRIRGRPPRLPRPRPRPSQSPRP, for which the “shrunken log2 fold change” value was found to be 0.0755. On to RRIRKRPPRLPRPRPRPYKNPRP, for which the “shrunken log2 fold change” value is -0.176. The value for RRIRKRPPRLPRPRPRPRNRPRP was -0.139. For RRIRFRPPRLPRPRPRPFTDPRP, the “shrunken log2 fold change” value was -0.0297. In the case of RRIRIRPPRLPRPRPRPTWMPRP, the “shrunken log2 fold change” value was -0.306. RRIRYRPPRLPRPRPRPQHAPRP: the “shrunken log2 fold change” value is -0.313. As to RRIRPRPPRLPRPRPRPSQEPRP, the “shrunken log2 fold change” value was -0.199. Take RRIRMRPPRLPRPRPRPVYRPRP: the “shrunken log2 fold change” value is -0.174.

Consider RRIRCRPPRLPRPRPRPDSLPRP, for which the “shrunken log2 fold change” value was -0.0818.

With RRIRLRPPRLPRPRPRPMGQPRP, the “shrunken log2 fold change” value stood at 0.0212. As to RRIRHRPPRLPRPRPRPCMSPRP, the “shrunken log2 fold change” value stood at 0.12. RRIRFRPPRLPRPRPRPSRFPRP: the “shrunken log2 fold change” value is -0.0395. For the sequence RRIRFRPPRLPRPRPRPHKNPRP, the “shrunken log2 fold change” value was -0.389. The value for RRIRLRPPRLPRPRPRPSYYPRP was -0.963; that for RRIRCRPPRLPRPRPRPEWEPRP was -0.00663; that for RRIRVRPPRLPRPRPRPEREPRP was 0.586. The value for RRIRFRPPRLPRPRPRPGWCPRP was 0.109; that for RRIRPRPPRLPRPRPRPFNPPRP was -0.296; that for RRIRLRPPRLPRPRPRPLQVPRP was 0.109. With RRIRLRPPRLPRPRPRPVYIPRP, the “shrunken log2 fold change” value is -0.258. For the sequence RRIRGRPPRLPRPRPRPPTIPRP, the “shrunken log2 fold change” value amounted to 0.459.

Consider RRIRMRPPRLPRPRPRPCDNPRP, for which the “shrunken log2 fold change” value was found to be 0.0146. Take RRIRSRPPRLPRPRPRPPTWPRP: the “shrunken log2 fold change” value came out at 0.326.

As for RRIRARPPRLPRPRPRPQTEPRP, the “shrunken log2 fold change” value was 0.292.

As to RRIRYRPPRLPRPRPRPPLFPRP, the “shrunken log2 fold change” value is -0.0411.

Regarding RRIRDRPPRLPRPRPRPGCEPRP, the “shrunken log2 fold change” value amounted to 0.852. As to RRIRVRPPRLPRPRPRPRIGPRP, the “shrunken log2 fold change” value was 0.131.

Turning to RRIRERPPRLPRPRPRPCLNPRP, the “shrunken log2 fold change” value is -0.267. In the case of RRIRCRPPRLPRPRPRPCDKPRP, the “shrunken log2 fold change” value was -0.266. The figure for RRIRVRPPRLPRPRPRPHNNPRP is -0.652; for RRIRSRPPRLPRPRPRPQGAPRP it is 2.34; for RRIRLRPPRLPRPRPRPMESPRP it is -0.0323.

As for RRIRHRPPRLPRPRPRPTNAPRP, the “shrunken log2 fold change” value is -0.463. The figure for RRIRMRPPRLPRPRPRPDGNPRP is 0.0626. Take RRIRERPPRLPRPRPRPYPSPRP: the “shrunken log2 fold change” value is -0.967. The figure for RRIRKRPPRLPRPRPRPTFEPRP is 0.312.

Regarding RRIRNRPPRLPRPRPRPEGTPRP, the “shrunken log2 fold change” value is 0.105. The figure for RRIRGRPPRLPRPRPRPRFWPRP is 0.943; for RRIRTRPPRLPRPRPRPNDYPRP it is -0.523; for RRIRFRPPRLPRPRPRPRHSPRP it is 0.0584.

As for RRIRIRPPRLPRPRPRPMMYPRP, the “shrunken log2 fold change” value was -0.13. As to RRIRFRPPRLPRPRPRPYVLPRP, the “shrunken log2 fold change” value was -0.332. Take RRIRARPPRLPRPRPRPPDWPRP: the “shrunken log2 fold change” value turned out to be 1.23. Regarding RRIRVRPPRLPRPRPRPDTRPRP, the “shrunken log2 fold change” value was -0.129. The value for RRIRHRPPRLPRPRPRPPHNPRP was 0.348.

Regarding RRIRPRPPRLPRPRPRPYEKPRP, the “shrunken log2 fold change” value was -0.0835.

With RRIRLRPPRLPRPRPRPQHPPRP, the “shrunken log2 fold change” value is -0.132. RRIRGRPPRLPRPRPRPKFAPRP: the “shrunken log2 fold change” value was 0.684.

Consider RRIRYRPPRLPRPRPRPWPMPRP, for which the “shrunken log2 fold change” value was -0.0578. The figure for RRIRLRPPRLPRPRPRPNRRPRP is 0.0365; for RRIRSRPPRLPRPRPRPILIPRP it is -0.384; for RRIRRRPPRLPRPRPRPNYLPRP it is 0.305. As for RRIRERPPRLPRPRPRPGMFPRP, the “shrunken log2 fold change” value was -0.837. Turning to RRIRWRPPRLPRPRPRPLIMPRP, the “shrunken log2 fold change” value was -0.0185. Consider RRIRARPPRLPRPRPRPPAVPRP, for which the “shrunken log2 fold change” value stood at 0.927. Take RRIRTRPPRLPRPRPRPPVEPRP: the “shrunken log2 fold change” value was determined as 0.0458. Take RRIRSRPPRLPRPRPRPHMAPRP: the “shrunken log2 fold change” value was -0.361. Turning to RRIRNRPPRLPRPRPRPYWAPRP, the “shrunken log2 fold change” value was -0.0304. As for RRIRTRPPRLPRPRPRPIFNPRP, the “shrunken log2 fold change” value is -0.608.

For the sequence RRIRKRPPRLPRPRPRPHKYPRP, the “shrunken log2 fold change” value is -0.448. For the sequence RRIRTRPPRLPRPRPRPIKCPRP, the “shrunken log2 fold change” value was -0.234.

As for RRIRQRPPRLPRPRPRPDQSPRP, the “shrunken log2 fold change” value was -0.222. For the sequence RRIRGRPPRLPRPRPRPTVPPRP, the “shrunken log2 fold change” value was found to be 0.433. Regarding RRIRYRPPRLPRPRPRPEYSPRP, the “shrunken log2 fold change” value is -0.0605. As for RRIRDRPPRLPRPRPRPRVDPRP, the “shrunken log2 fold change” value is 0.325. Take RRIRHRPPRLPRPRPRPTSDPRP: the “shrunken log2 fold change” value was -0.302. The figure for RRIRMRPPRLPRPRPRPMRYPRP is -0.0558; for RRIRSRPPRLPRPRPRPMFNPRP it is -0.258.

RRIRFRPPRLPRPRPRPWSTPRP: the “shrunken log2 fold change” value was -0.0601. Consider RRIRWRPPRLPRPRPRPKQRPRP, for which the “shrunken log2 fold change” value is 0.473. The figure for RRIRCRPPRLPRPRPRPPRAPRP is 0.934. RRIRWRPPRLPRPRPRPYHKPRP: the “shrunken log2 fold change” value was -0.118. Regarding RRIRARPPRLPRPRPRPCPQPRP, the “shrunken log2 fold change” value is -0.00027. RRIRFRPPRLPRPRPRPTLTPRP: the “shrunken log2 fold change” value came to 0.445. For RRIRRRPPRLPRPRPRPAYRPRP, the “shrunken log2 fold change” value came out at 0.108.

In the case of RRIRKRPPRLPRPRPRPDNDPRP, the “shrunken log2 fold change” value is -0.00188. In the case of RRIRCRPPRLPRPRPRPLRVPRP, the “shrunken log2 fold change” value was 0.0985. With RRIRSRPPRLPRPRPRPHTNPRP, the “shrunken log2 fold change” value is -0.335. For RRIRMRPPRLPRPRPRPRHRPRP, the “shrunken log2 fold change” value came out at 0.249. As to RRIRERPPRLPRPRPRPAQEPRP, the “shrunken log2 fold change” value was determined as 0.597. Turning to RRIRQRPPRLPRPRPRPFKVPRP, the “shrunken log2 fold change” value was -0.00664. Turning to RRIRIRPPRLPRPRPRPIEDPRP, the “shrunken log2 fold change” value is 0.0806. The value for RRIRFRPPRLPRPRPRPYPSPRP was -0.018; that for RRIRARPPRLPRPRPRPHILPRP was -0.207; that for RRIRDRPPRLPRPRPRPRHVPRP was 0.153. Regarding RRIRCRPPRLPRPRPRPIPPPRP, the “shrunken log2 fold change” value stood at 0.265. Take RRIRTRPPRLPRPRPRPAIDPRP: the “shrunken log2 fold change” value was -0.206. On to RRIRWRPPRLPRPRPRPCPNPRP, for which the “shrunken log2 fold change” value was -0.184. The value for RRIRQRPPRLPRPRPRPDLVPRP was -0.0031; that for RRIRPRPPRLPRPRPRPHILPRP was -0.381.

As for RRIRPRPPRLPRPRPRPHCFPRP, the “shrunken log2 fold change” value is -0.497. Consider RRIRHRPPRLPRPRPRPFQRPRP, for which the “shrunken log2 fold change” value came out at 0.0038. Consider RRIRRRPPRLPRPRPRPVWSPRP, for which the “shrunken log2 fold change” value is -0.103. On to RRIRARPPRLPRPRPRPHFYPRP, for which the “shrunken log2 fold change” value came out at 0.107. The figure for RRIRARPPRLPRPRPRPLMVPRP is 0.0926; for RRIRCRPPRLPRPRPRPRMKPRP it is 0.0252. RRIRMRPPRLPRPRPRPVAEPRP: the “shrunken log2 fold change” value came out at 2.88. RRIRLRPPRLPRPRPRPMLEPRP: the “shrunken log2 fold change” value was determined as 0.0968.

RRIRGRPPRLPRPRPRPVVFPRP: the “shrunken log2 fold change” value was found to be 0.56. With RRIRWRPPRLPRPRPRPPMIPRP, the “shrunken log2 fold change” value is -0.103. The figure for RRIRIRPPRLPRPRPRPTQGPRP is -0.104; for RRIRWRPPRLPRPRPRPEAEPRP it is 1.53; for RRIRRRPPRLPRPRPRPPVYPRP it is 0.32. On to RRIRGRPPRLPRPRPRPVCRPRP, for which the “shrunken log2 fold change” value came out at 0.802.

With RRIRWRPPRLPRPRPRPIPMPRP, the “shrunken log2 fold change” value stood at 0.112. Regarding RRIRHRPPRLPRPRPRPPYFPRP, the “shrunken log2 fold change” value is -0.366.

With RRIRRRPPRLPRPRPRPVCQPRP, the “shrunken log2 fold change” value was 0.179. With RRIRRRPPRLPRPRPRPGWCPRP, the “shrunken log2 fold change” value came out at 0.422. The value for RRIRFRPPRLPRPRPRPMADPRP was -0.00574; that for RRIRVRPPRLPRPRPRPNDYPRP was -0.00419. In the case of RRIRIRPPRLPRPRPRPTYQPRP, the “shrunken log2 fold change” value is -0.715.

For RRIRYRPPRLPRPRPRPETSPRP, the “shrunken log2 fold change” value turned out to be 0.014. The figure for RRIRMRPPRLPRPRPRPYCDPRP is -0.556. Turning to RRIRCRPPRLPRPRPRPPCMPRP, the “shrunken log2 fold change” value was -0.159. Turning to RRIRIRPPRLPRPRPRPMTCPRP, the “shrunken log2 fold change” value is -0.00783.

Consider RRIRRRPPRLPRPRPRPSCGPRP, for which the “shrunken log2 fold change” value was 0.0769. Take RRIRGRPPRLPRPRPRPVDWPRP: the “shrunken log2 fold change” value was determined as 1.03. As to RRIRKRPPRLPRPRPRPPAGPRP, the “shrunken log2 fold change” value was found to be 0.989. In the case of RRIRWRPPRLPRPRPRPKVFPRP, the “shrunken log2 fold change” value is -0.00123. Turning to RRIRWRPPRLPRPRPRPLFCPRP, the “shrunken log2 fold change” value stood at 0.22.

Consider RRIRIRPPRLPRPRPRPQKCPRP, for which the “shrunken log2 fold change” value was -0.506.
